From the supplement of paper PMC10065799, “High-throughput profiling of sequence recognition by tyrosine kinases and SH2 domains using bacterial peptide display” (eLife, 2023)

Test system: c-Src
Experiment: phosphorylation enrichment, bacterial display (enrichment ratio); higher = better substrate or ligand; peptides without Tyr show the background
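Wherever SH2 binding enrichment of the phosphorylated peptide, bacterial display is given: peptide library displayed on the E. coli surface as eCPX fusions, selected cells deep-sequenced, score is each peptide's frequency after selection divided by its frequency in the input.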
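Wherever phosphorylation enrichment, bacterial display is given: 11-residue human phosphosite peptides and single-mutation variants displayed on the E. coli surface, counted by deep sequencing, each peptide's frequency after selection divided by its frequency in the unselected input library; frequency after pTyr selection over input frequency; kinase dosed for 20-30% of maximal phosphorylation in three min.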

Sequence	phosphorylation enrichment
KNNDGYTDFAE [MCFD2_Y135_I136T_YF]	0.449
LITTLYISFLG [KCNQ1_Y267_G269S]	1.56
FKEIVYAVSSD [DCX_Y70_G67E]	3.74
RGKDSYETSQL [SPP1_Y225]	0.449
LKKLEYLNLAL [LRRC6_Y70]	0.367
QNAGDYFDLFG [PTPN11_Y62_T59A_YF]	1.2
QSHKVYVQHLL [POR_Y604]	0.618
IHSGIYYKPES [L2HGDH_Y102]	4.54
TEAEPYFCSLR [NPHS1_Y1138_R1140C_YF]	0.932
PDNEPYIFKVF [PIK3AP1_Y553]	1.05
LKGQVYILVRE [ASS1_Y359_G362V]	0.334
RNAAEYLLSSG [ABL1_Y139]	0.34
EDGCIYPGTIA [SMN1_Y109_A111G]	0.567
VNKIFHPDFIV [LIG3_Y768_Y768H_YF]	0.497
ALKWGYTVKGI [OAT_Y158_R154L]	0.31
GISDEYHVIRH [GCDH_Y398]	0.664
DFFDLYGGQKF [PTPN11_Y66_E69Q_YF]	6.89

Sequence	phosphorylation enrichment
FPLAEYTEVKT [ALDH1A3_Y497_A493P_YF]	0.528
VSSSDYFSFVL [USP24_Y2138_Y2134S]	7.49
QEGPEYWDQNT [HLA-A_Y83_E87N]	0.546
LSDGPYSNSFE [EPOR_Y485_P488S_YF]	0.83
SSMIDYNTLEK [MYOC_Y479_P481T]	0.401
GEDEPYSEPYA [APBA1_Y183]	0.551
NWGKKYPTCNS [PTPRZ1_Y53]	0.435
HEVHIYEKSGA [ARPC1B_Y35]	1.48
FSAPNYCYRCG [PPP2CA_Y265]	0.382
YQSKHYACIRQ [TIMP3_Y182]	0.406
HNVAIYEGFAL [ACTC1_Y168_P166A_YF]	9.03
ILGTYYETGSI [PAX2_Y73_R71T]	4.01
ILGTFYETGSI [PAX2_Y73_R71T_YF]	0.529
FESPRYLQVHI [FANCA_Y488]	0.411
REEIKYMLWLS [OTC_Y55_G50R]	0.474
ANVKWYRSGRE	0.512

Target: Grb2 SH2 (UniProt P62993)
Experiment: SH2 binding enrichment of the phosphorylated peptide, bacterial display (enrichment ratio); higher = better substrate or ligand; peptides without Tyr show the background

SH2 binding enrichment	Sequence
0.698	RGKDSYETSQL [SPP1_Y225]
0.997	QNAGDYFDLFG [PTPN11_Y62_T59A_YF]
0.979	QSHKVYVQHLL [POR_Y604]
1.1	PDNEPYIFKVF [PIK3AP1_Y553]
0.915	EDGCIYPGTIA [SMN1_Y109_A111G]
0.872	ALKWGYTVKGI [OAT_Y158_R154L]
0.883	DFFDLYGGQKF [PTPN11_Y66_E69Q_YF]
0.715	VSSSDYFSFVL [USP24_Y2138_Y2134S]
1.06	NWGKKYPTCNS [PTPRZ1_Y53]
1.1	FSAPNYCYRCG [PPP2CA_Y265]
1.21	YQSKHYACIRQ [TIMP3_Y182]
0.998	ILGTYYETGSI [PAX2_Y73_R71T]
0.841	ILGTFYETGSI [PAX2_Y73_R71T_YF]
0.642	REEIKYMLWLS [OTC_Y55_G50R]

Further lines, the sequence ahead of its results:

Sequence	SH2 binding enrichment
KNNDGYTDFAE [MCFD2_Y135_I136T_YF]	0.869
LITTLYISFLG [KCNQ1_Y267_G269S]	0.872
FKEIVYAVSSD [DCX_Y70_G67E]	0.913
LKKLEYLNLAL [LRRC6_Y70]	2.59
IHSGIYYKPES [L2HGDH_Y102]	0.762
TEAEPYFCSLR [NPHS1_Y1138_R1140C_YF]	0.848
LKGQVYILVRE [ASS1_Y359_G362V]	0.878
RNAAEYLLSSG [ABL1_Y139]	0.998
VNKIFHPDFIV [LIG3_Y768_Y768H_YF]	0.873
GISDEYHVIRH [GCDH_Y398]	0.827
FPLAEYTEVKT [ALDH1A3_Y497_A493P_YF]	0.884
QEGPEYWDQNT [HLA-A_Y83_E87N]	0.834
LSDGPYSNSFE [EPOR_Y485_P488S_YF]	1
SSMIDYNTLEK [MYOC_Y479_P481T]	0.643
GEDEPYSEPYA [APBA1_Y183]	0.903
HEVHIYEKSGA [ARPC1B_Y35]	0.817
HNVAIYEGFAL [ACTC1_Y168_P166A_YF]	0.877
FESPRYLQVHI [FANCA_Y488]	0.912
ANVKWYRSGRE	0.739

Target: SHP2-C SH2
Experiment: as above

SH2 binding enrichment	Sequence
0.381	RGKDSYETSQL [SPP1_Y225]
0.733	QNAGDYFDLFG [PTPN11_Y62_T59A_YF]
1	QSHKVYVQHLL [POR_Y604]
1	PDNEPYIFKVF [PIK3AP1_Y553]
0.699	EDGCIYPGTIA [SMN1_Y109_A111G]
0.845	ALKWGYTVKGI [OAT_Y158_R154L]
0.541	DFFDLYGGQKF [PTPN11_Y66_E69Q_YF]
0.679	VSSSDYFSFVL [USP24_Y2138_Y2134S]
1.03	NWGKKYPTCNS [PTPRZ1_Y53]
0.933	FSAPNYCYRCG [PPP2CA_Y265]
6.64	YQSKHYACIRQ [TIMP3_Y182]
0.559	ILGTYYETGSI [PAX2_Y73_R71T]
0.837	ILGTFYETGSI [PAX2_Y73_R71T_YF]
0.775	REEIKYMLWLS [OTC_Y55_G50R]

More lines, now with the values behind:

Sequence	SH2 binding enrichment
KNNDGYTDFAE [MCFD2_Y135_I136T_YF]	0.8
LITTLYISFLG [KCNQ1_Y267_G269S]	0.621
FKEIVYAVSSD [DCX_Y70_G67E]	0.656
LKKLEYLNLAL [LRRC6_Y70]	1.49
IHSGIYYKPES [L2HGDH_Y102]	0.539
TEAEPYFCSLR [NPHS1_Y1138_R1140C_YF]	0.647
LKGQVYILVRE [ASS1_Y359_G362V]	0.896
RNAAEYLLSSG [ABL1_Y139]	0.595
VNKIFHPDFIV [LIG3_Y768_Y768H_YF]	0.744
GISDEYHVIRH [GCDH_Y398]	0.606
FPLAEYTEVKT [ALDH1A3_Y497_A493P_YF]	0.841
QEGPEYWDQNT [HLA-A_Y83_E87N]	0.702
LSDGPYSNSFE [EPOR_Y485_P488S_YF]	0.525
SSMIDYNTLEK [MYOC_Y479_P481T]	0.433
GEDEPYSEPYA [APBA1_Y183]	0.742
HEVHIYEKSGA [ARPC1B_Y35]	0.667
HNVAIYEGFAL [ACTC1_Y168_P166A_YF]	1
FESPRYLQVHI [FANCA_Y488]	0.781
ANVKWYRSGRE	0.46

Target: c-Src SH2
Experiment: as above

SH2 binding enrichment	Sequence
0.482	RGKDSYETSQL [SPP1_Y225]
0.505	QNAGDYFDLFG [PTPN11_Y62_T59A_YF]
0.665	QSHKVYVQHLL [POR_Y604]
0.755	PDNEPYIFKVF [PIK3AP1_Y553]
0.619	EDGCIYPGTIA [SMN1_Y109_A111G]
0.625	ALKWGYTVKGI [OAT_Y158_R154L]
0.735	DFFDLYGGQKF [PTPN11_Y66_E69Q_YF]
0.52	VSSSDYFSFVL [USP24_Y2138_Y2134S]
0.787	NWGKKYPTCNS [PTPRZ1_Y53]
0.762	FSAPNYCYRCG [PPP2CA_Y265]
2.08	YQSKHYACIRQ [TIMP3_Y182]
1.4	ILGTYYETGSI [PAX2_Y73_R71T]
0.619	ILGTFYETGSI [PAX2_Y73_R71T_YF]
0.502	REEIKYMLWLS [OTC_Y55_G50R]

The next lines start with the sequence.

Sequence	SH2 binding enrichment
KNNDGYTDFAE [MCFD2_Y135_I136T_YF]	5.75
LITTLYISFLG [KCNQ1_Y267_G269S]	0.838
FKEIVYAVSSD [DCX_Y70_G67E]	0.742
LKKLEYLNLAL [LRRC6_Y70]	0.424
IHSGIYYKPES [L2HGDH_Y102]	0.67
TEAEPYFCSLR [NPHS1_Y1138_R1140C_YF]	0.638
LKGQVYILVRE [ASS1_Y359_G362V]	0.525
RNAAEYLLSSG [ABL1_Y139]	0.566
VNKIFHPDFIV [LIG3_Y768_Y768H_YF]	0.462
GISDEYHVIRH [GCDH_Y398]	0.941
FPLAEYTEVKT [ALDH1A3_Y497_A493P_YF]	1.87
QEGPEYWDQNT [HLA-A_Y83_E87N]	0.419
LSDGPYSNSFE [EPOR_Y485_P488S_YF]	1.22
SSMIDYNTLEK [MYOC_Y479_P481T]	0.607
GEDEPYSEPYA [APBA1_Y183]	0.582
HEVHIYEKSGA [ARPC1B_Y35]	2.29
HNVAIYEGFAL [ACTC1_Y168_P166A_YF]	0.509
FESPRYLQVHI [FANCA_Y488]	0.648
ANVKWYRSGRE	0.368
